Measurements taken from US20180155451A1 (published 2018).

Key:
[1] = biological target: T1, FcγRIIb extracellular domain with C-terminal His tag (human, UniProt P31994 43-217); assay: SPR (Biacore), captured antibody, FcγR as analyte; relative to GpH7-A5/GpH7-B3/GpL16-k0 = 100
T1 construct: extracellular domain; also called FcgRIIb; 2b; not shown: His tag at the C terminus
T1 sequence (looked up): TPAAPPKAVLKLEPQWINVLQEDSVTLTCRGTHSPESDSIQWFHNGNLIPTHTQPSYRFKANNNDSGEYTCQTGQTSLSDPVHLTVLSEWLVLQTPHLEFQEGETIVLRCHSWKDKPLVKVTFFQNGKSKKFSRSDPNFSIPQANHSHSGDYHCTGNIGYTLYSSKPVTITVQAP
Description: (§1) Analysis of interaction between objective antibody and the FcγR was carried out using Biacore T100 (GE Healthcare). HBS-EP+ (GE Healthcare) was used as the running buffer, and the measurement temperature was set to 25° C. Chips produced by immobilizing the antigen peptide by the amine coupling method to a Series S Sencor Chip CM5 (GE Healthcare), or alternatively, chips produced by allowing preliminarily biotinylated antigen peptides to interact with and immobilize onto a Series S Sensor Chip SA (certified) (GE Healthcare) were used. Antibodies of interest were captured onto an antigen peptide-immobilized chip, and allowed to interact to each FcγR diluted with running buffer. To regenerate and repeatedly use the chip, the antibodies captured on the chip were washed off by reacting 10 mM glycine-HCl, pH 1.5.
(§2) The FcγR-binding activity of each antibody was assessed primarily using as an indicator the FcγR-binding activity and dissociation constant for FcγR.

[2] = biological target: T2, FcγRIIIa extracellular domain with C-terminal His tag (human, UniProt P08637 17-208); assay: as above
T2 construct: extracellular domain; also called FcgRIIIa; 3a; not shown: His tag at the C terminus
T2 sequence (P08637 17-208): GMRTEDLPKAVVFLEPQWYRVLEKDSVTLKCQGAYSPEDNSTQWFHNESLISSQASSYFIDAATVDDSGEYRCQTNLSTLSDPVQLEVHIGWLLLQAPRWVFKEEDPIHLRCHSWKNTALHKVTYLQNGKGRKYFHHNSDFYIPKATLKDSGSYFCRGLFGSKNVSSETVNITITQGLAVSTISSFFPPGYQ
Description: as §1, §2

[3] = biological target: T3, FcγRIa extracellular domain with C-terminal His tag (human, UniProt P12314 16-292); assay: SPR (Biacore), captured antibody, FcγRIa analyte; relative to GpH7-B3/GpL16-k0 = 100
T3 construct: extracellular domain; Expressed in FreeStyle293 cells; used as analyte in Biacore; also called FcgRI; 1a; not shown: His tag at the C terminus
T3 sequence (P12314 16-292): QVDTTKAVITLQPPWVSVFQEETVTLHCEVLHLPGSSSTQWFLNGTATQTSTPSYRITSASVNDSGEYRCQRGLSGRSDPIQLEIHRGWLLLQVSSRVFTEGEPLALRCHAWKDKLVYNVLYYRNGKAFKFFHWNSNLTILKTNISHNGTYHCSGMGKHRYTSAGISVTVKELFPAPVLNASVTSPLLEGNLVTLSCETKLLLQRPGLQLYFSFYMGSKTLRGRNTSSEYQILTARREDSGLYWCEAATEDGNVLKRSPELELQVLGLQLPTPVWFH

B1: GpH7-A5/GpH7-B3 variant S239_01G/GpL16-k0 (heterodimerized antibody, He Ab) (antibody, human IgG1, kappa)
heavy 1: not shown
heavy 2: not shown
light: DIVMTQSPLSLPVTPGEPASISCQASESLVHSNRNTYLHWYLQKPGQSPQLLIYKVSNRFSGVPDRFSGSGSGTDFTLKISRVEAEDVGVYYCSQNTHVPPTFGQGTKVEIERTVAAPSVFIFPPSDEQLKSGTASVVCLLNNFYPREAKVQWKVDNALQSGNSQESVTEQDSKDSTYSLSSTLTLSKADYEKHKVYACEVTHQGLSSPVTKSFNRGEC
notes: Anti-glypican-3 IgG1; also called S239G
- He/Con_2b (IIb binding) [1]: 144 % of HeCon Ab
- He/Con_3a (IIIa binding) [2]: 76.2 % of HeCon Ab

B2: GpH7-B3 variant (T335_04F)/GpL16-k0 (antibody, human IgG1, kappa)
heavy: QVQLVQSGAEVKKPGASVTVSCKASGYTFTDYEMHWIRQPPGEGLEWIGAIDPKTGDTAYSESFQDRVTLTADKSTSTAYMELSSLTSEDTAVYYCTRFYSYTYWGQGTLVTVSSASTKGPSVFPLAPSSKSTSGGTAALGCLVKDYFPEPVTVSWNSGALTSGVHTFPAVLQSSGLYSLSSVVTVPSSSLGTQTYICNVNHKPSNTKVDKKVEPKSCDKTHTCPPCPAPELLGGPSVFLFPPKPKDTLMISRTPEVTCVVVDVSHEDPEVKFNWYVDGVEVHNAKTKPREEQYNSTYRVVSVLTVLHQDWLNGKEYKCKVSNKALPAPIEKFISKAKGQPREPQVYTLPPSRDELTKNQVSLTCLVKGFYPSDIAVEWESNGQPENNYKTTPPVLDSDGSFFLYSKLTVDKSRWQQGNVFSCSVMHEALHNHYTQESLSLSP
light: DIVMTQSPLSLPVTPGEPASISCQASESLVHSNRNTYLHWYLQKPGQSPQLLIYKVSNRFSGVPDRFSGSGSGTDFTLKISRVEAEDVGVYYCSQNTHVPPTFGQGTKVEIERTVAAPSVFIFPPSDEQLKSGTASVVCLLNNFYPREAKVQWKVDNALQSGNSQESVTEQDSKDSTYSLSSTLTLSKADYEKHKVYACEVTHQGLSSPVTKSFNRGEC
notes: Homodimerized; both H chains altered; also called Ho Ab T335_04F
- Ho/Con_1a [3]: 105 % of control

B3: GpH7-A5/GpH7-B3 variant S267_03V/GpL16-k0 (heterodimerized antibody, He Ab) (antibody, human IgG1, kappa)
heavy 1: not shown
heavy 2: not shown
light: DIVMTQSPLSLPVTPGEPASISCQASESLVHSNRNTYLHWYLQKPGQSPQLLIYKVSNRFSGVPDRFSGSGSGTDFTLKISRVEAEDVGVYYCSQNTHVPPTFGQGTKVEIERTVAAPSVFIFPPSDEQLKSGTASVVCLLNNFYPREAKVQWKVDNALQSGNSQESVTEQDSKDSTYSLSSTLTLSKADYEKHKVYACEVTHQGLSSPVTKSFNRGEC
notes: Anti-glypican-3 IgG1; the alteration is in the GpH7-B3 chain only; also called S267V
- He/Con_2b (IIb binding) [1]: 192 % of HeCon Ab
- He/Con_3a (IIIa binding) [2]: 30.8 % of HeCon Ab

B4: GpH7-A5/GpH7-B3 variant S239_07I/GpL16-k0 (heterodimerized antibody, He Ab) (antibody, human IgG1, kappa)
heavy 1: not shown
heavy 2: not shown
light: DIVMTQSPLSLPVTPGEPASISCQASESLVHSNRNTYLHWYLQKPGQSPQLLIYKVSNRFSGVPDRFSGSGSGTDFTLKISRVEAEDVGVYYCSQNTHVPPTFGQGTKVEIERTVAAPSVFIFPPSDEQLKSGTASVVCLLNNFYPREAKVQWKVDNALQSGNSQESVTEQDSKDSTYSLSSTLTLSKADYEKHKVYACEVTHQGLSSPVTKSFNRGEC
notes: Anti-glypican-3 IgG1; the alteration is in the GpH7-B3 chain only; also called S239I
- He/Con_2b (IIb binding) [1]: 107 % of HeCon Ab
- He/Con_3a (IIIa binding) [2]: 79.3 % of HeCon Ab

B5: GpH7-A5/GpH7-B3 variant V266_06M/GpL16-k0 (heterodimerized antibody, He Ab) (antibody, human IgG1, kappa)
heavy 1: not shown
heavy 2: not shown
light: DIVMTQSPLSLPVTPGEPASISCQASESLVHSNRNTYLHWYLQKPGQSPQLLIYKVSNRFSGVPDRFSGSGSGTDFTLKISRVEAEDVGVYYCSQNTHVPPTFGQGTKVEIERTVAAPSVFIFPPSDEQLKSGTASVVCLLNNFYPREAKVQWKVDNALQSGNSQESVTEQDSKDSTYSLSSTLTLSKADYEKHKVYACEVTHQGLSSPVTKSFNRGEC
notes: Anti-glypican-3 IgG1; the alteration is in the GpH7-B3 chain only; also called V266M
- He/Con_2b (IIb binding) [1]: 251 % of HeCon Ab
- He/Con_3a (IIIa binding) [2]: 85.8 % of HeCon Ab

B6: GpH7-A5/GpH7-B3 variant S267_06M/GpL16-k0 (heterodimerized antibody, He Ab) (antibody, human IgG1, kappa)
heavy 1: not shown
heavy 2: not shown
light: DIVMTQSPLSLPVTPGEPASISCQASESLVHSNRNTYLHWYLQKPGQSPQLLIYKVSNRFSGVPDRFSGSGSGTDFTLKISRVEAEDVGVYYCSQNTHVPPTFGQGTKVEIERTVAAPSVFIFPPSDEQLKSGTASVVCLLNNFYPREAKVQWKVDNALQSGNSQESVTEQDSKDSTYSLSSTLTLSKADYEKHKVYACEVTHQGLSSPVTKSFNRGEC
notes: Anti-glypican-3 IgG1; the alteration is in the GpH7-B3 chain only; also called S267M
- He/Con_2b (IIb binding) [1]: 210 % of HeCon Ab
- He/Con_3a (IIIa binding) [2]: 66 % of HeCon Ab

B7: GpH7-A5/GpH7-B3 variant S267_01G/GpL16-k0 (heterodimerized antibody, He Ab) (antibody, human IgG1, kappa)
heavy 1: not shown
heavy 2: not shown
light: DIVMTQSPLSLPVTPGEPASISCQASESLVHSNRNTYLHWYLQKPGQSPQLLIYKVSNRFSGVPDRFSGSGSGTDFTLKISRVEAEDVGVYYCSQNTHVPPTFGQGTKVEIERTVAAPSVFIFPPSDEQLKSGTASVVCLLNNFYPREAKVQWKVDNALQSGNSQESVTEQDSKDSTYSLSSTLTLSKADYEKHKVYACEVTHQGLSSPVTKSFNRGEC
notes: Anti-glypican-3 IgG1; the alteration is in the GpH7-B3 chain only; also called S267G
- He/Con_2b (IIb binding) [1]: 105 % of HeCon Ab
- He/Con_3a (IIIa binding) [2]: 53.8 % of HeCon Ab

B8: GpH7-A5/GpH7-B3 variant S267_08L/GpL16-k0 (heterodimerized antibody, He Ab) (antibody, human IgG1, kappa)
heavy 1: not shown
heavy 2: not shown
light: DIVMTQSPLSLPVTPGEPASISCQASESLVHSNRNTYLHWYLQKPGQSPQLLIYKVSNRFSGVPDRFSGSGSGTDFTLKISRVEAEDVGVYYCSQNTHVPPTFGQGTKVEIERTVAAPSVFIFPPSDEQLKSGTASVVCLLNNFYPREAKVQWKVDNALQSGNSQESVTEQDSKDSTYSLSSTLTLSKADYEKHKVYACEVTHQGLSSPVTKSFNRGEC
notes: Anti-glypican-3 IgG1; the alteration is in the GpH7-B3 chain only; also called S267L
- He/Con_2b (IIb binding) [1]: 109 % of HeCon Ab
- He/Con_3a (IIIa binding) [2]: 19.5 % of HeCon Ab

B9: GpH7-A5/GpH7-B3 variant S267_07I/GpL16-k0 (heterodimerized antibody, He Ab) (antibody, human IgG1, kappa)
heavy 1: not shown
heavy 2: not shown
light: DIVMTQSPLSLPVTPGEPASISCQASESLVHSNRNTYLHWYLQKPGQSPQLLIYKVSNRFSGVPDRFSGSGSGTDFTLKISRVEAEDVGVYYCSQNTHVPPTFGQGTKVEIERTVAAPSVFIFPPSDEQLKSGTASVVCLLNNFYPREAKVQWKVDNALQSGNSQESVTEQDSKDSTYSLSSTLTLSKADYEKHKVYACEVTHQGLSSPVTKSFNRGEC
notes: Anti-glypican-3 IgG1; the alteration is in the GpH7-B3 chain only; also called S267I
- He/Con_2b (IIb binding) [1]: 192 % of HeCon Ab
- He/Con_3a (IIIa binding) [2]: 25.2 % of HeCon Ab

B10: GpH7-A5/GpH7-B3 variant S267_10E/GpL16-k0 (heterodimerized antibody, He Ab) (antibody, human IgG1, kappa)
heavy 1: not shown
heavy 2: not shown
light: DIVMTQSPLSLPVTPGEPASISCQASESLVHSNRNTYLHWYLQKPGQSPQLLIYKVSNRFSGVPDRFSGSGSGTDFTLKISRVEAEDVGVYYCSQNTHVPPTFGQGTKVEIERTVAAPSVFIFPPSDEQLKSGTASVVCLLNNFYPREAKVQWKVDNALQSGNSQESVTEQDSKDSTYSLSSTLTLSKADYEKHKVYACEVTHQGLSSPVTKSFNRGEC
notes: Anti-glypican-3 IgG1; the alteration is in the GpH7-B3 chain only; also called S267E
- He/Con_2b (IIb binding) [1]: 379 % of HeCon Ab
- He/Con_3a (IIIa binding) [2]: 91.9 % of HeCon Ab

B11: GpH7-A5/GpH7-B3 variant S239_03V/GpL16-k0 (heterodimerized antibody, He Ab) (antibody, human IgG1, kappa)
heavy 1: not shown
heavy 2: not shown
light: DIVMTQSPLSLPVTPGEPASISCQASESLVHSNRNTYLHWYLQKPGQSPQLLIYKVSNRFSGVPDRFSGSGSGTDFTLKISRVEAEDVGVYYCSQNTHVPPTFGQGTKVEIERTVAAPSVFIFPPSDEQLKSGTASVVCLLNNFYPREAKVQWKVDNALQSGNSQESVTEQDSKDSTYSLSSTLTLSKADYEKHKVYACEVTHQGLSSPVTKSFNRGEC
notes: Anti-glypican-3 IgG1; the alteration is in the GpH7-B3 chain only; also called S239V
- He/Con_2b (IIb binding) [1]: 108 % of HeCon Ab
- He/Con_3a (IIIa binding) [2]: 76.6 % of HeCon Ab

B12: GpH7-A5/GpH7-B3 variant S239_05P/GpL16-k0 (heterodimerized antibody, He Ab) (antibody, human IgG1, kappa)
heavy 1: not shown
heavy 2: not shown
light: DIVMTQSPLSLPVTPGEPASISCQASESLVHSNRNTYLHWYLQKPGQSPQLLIYKVSNRFSGVPDRFSGSGSGTDFTLKISRVEAEDVGVYYCSQNTHVPPTFGQGTKVEIERTVAAPSVFIFPPSDEQLKSGTASVVCLLNNFYPREAKVQWKVDNALQSGNSQESVTEQDSKDSTYSLSSTLTLSKADYEKHKVYACEVTHQGLSSPVTKSFNRGEC
notes: Anti-glypican-3 IgG1; the alteration is in the GpH7-B3 chain only; also called S239P
- He/Con_2b (IIb binding) [1]: 102 % of HeCon Ab
- He/Con_3a (IIIa binding) [2]: 14.9 % of HeCon Ab

B13: GpH7-A5/GpH7-B3 variant S239_06M/GpL16-k0 (heterodimerized antibody, He Ab) (antibody, human IgG1, kappa)
heavy 1: not shown
heavy 2: not shown
light: DIVMTQSPLSLPVTPGEPASISCQASESLVHSNRNTYLHWYLQKPGQSPQLLIYKVSNRFSGVPDRFSGSGSGTDFTLKISRVEAEDVGVYYCSQNTHVPPTFGQGTKVEIERTVAAPSVFIFPPSDEQLKSGTASVVCLLNNFYPREAKVQWKVDNALQSGNSQESVTEQDSKDSTYSLSSTLTLSKADYEKHKVYACEVTHQGLSSPVTKSFNRGEC
notes: Anti-glypican-3 IgG1; the alteration is in the GpH7-B3 chain only; also called S239M
- He/Con_2b (IIb binding) [1]: 101 % of HeCon Ab
- He/Con_3a (IIIa binding) [2]: 78.2 % of HeCon Ab

B14: GpH7-A5/GpH7-B3 variant S239_08L/GpL16-k0 (heterodimerized antibody, He Ab) (antibody, human IgG1, kappa)
heavy 1: not shown
heavy 2: not shown
light: DIVMTQSPLSLPVTPGEPASISCQASESLVHSNRNTYLHWYLQKPGQSPQLLIYKVSNRFSGVPDRFSGSGSGTDFTLKISRVEAEDVGVYYCSQNTHVPPTFGQGTKVEIERTVAAPSVFIFPPSDEQLKSGTASVVCLLNNFYPREAKVQWKVDNALQSGNSQESVTEQDSKDSTYSLSSTLTLSKADYEKHKVYACEVTHQGLSSPVTKSFNRGEC
notes: Anti-glypican-3 IgG1; the alteration is in the GpH7-B3 chain only; also called S239L
- He/Con_2b (IIb binding) [1]: 140 % of HeCon Ab
- He/Con_3a (IIIa binding) [2]: 95.3 % of HeCon Ab
